From patent US20260191907A1 (INSTITUT CURIE, published 2026)

B1: B5 nanobody (anti-FGFR4 sdAb, NaLi-H1 library) (VHH)
VHH: EVQLQASGGGFVQPGGSLRLSCAASGRTSWLTTMGWFRQAPGKEREFVSAISSFSSKQGYYADSVKGRFTISRDNSKNTVYLQMNSLRAEDTATYYCAYASYPRHQGNGRWKDFVEYWGQGTQVTVSS
notes: Recombinant nanobody of about 17 kDa; also called B5 sdAb; not shown: C-terminal Myc/6xHis-tag and an additional cysteine
B2: B1 nanobody (anti-FGFR4 sdAb, NaLi-H1 library) (VHH)
VHH: EVQLQASGGGFVQPGGSLRLSCAASGYTSRSSAMGWFRQAPGKEREFVSAISDLTGYPYYYADSVKGRFTISRDNSKNTVYLQMNSLRAEDTATYYCAAYQDDKWTYGSQHGKYWGQGTQVTVSS
notes: also called B1 sdAb; not shown: C-terminal Myc/6xHis-tag and an additional cysteine
B3: A8 nanobody (anti-FGFR4 sdAb, NaLi-H1 library) (VHH)
VHH: EVQLQASGGGFVQPGGSLRLSCAASGRTYSRDTMGWFRQAPGKEREFVSAISSRHSHTTYYADSVKGRFTISRDNSKNTVYLQMNSLRAEDTATYYCAEWDVFDMHYALPPMWYWGQGTQVTVSS
notes: also called A8 sdAb; not shown: C-terminal Myc/6xHis-tag and an additional cysteine
B4: F8 nanobody (anti-FGFR4 sdAb, Gimli library) (VHH)
VHH: EVQLVESGGGLVQPGGSLRLSCAASGTGYALDDMGWVRQAPGKGLEWVSAISDDESMADYYADSVKGRFTISRDNSKNTVYLQMNSLRAEDTAVYYCASYKEYKYQSGHHYFAYRGQGTLVTVSS
notes: Recombinant nanobody of about 17 kDa; also called F8 sdAb; not shown: C-terminal Myc/6xHis-tag and an additional cysteine

Experiments:
[1] = molecular target: T1, FGFR1 expressed on Rh4-FR4ko cells (UniProt P11362 22-822, limits assumed); experiment: flow cytometry on Rh4-FR4ko cells, which express FGFR1 and FGFR2
T1 construct: whole, on cells; also called FGFR1 on Rh4 cells
Experimental: The cells were incubated for 1 h with nanobodies at 10 μM (A8, B1, B5, F8, mCh) followed by stimulation of FGFR4 with 50 nM FGF19 for 10 min. Control cells (C) were either not stimulated or stimulated with FGF19 in absence of the nanobodies. The cell lysates were analysed by western blot with anti phospho ERK1/2 antibody. Total Erk1/2 levels are shown as loading control.
(§1) Binding validation of selected phages, recombinant nanobodies and decorated liposomes was performed on Rh4-FR4 wt and Rh4-FR4ko cells. Specificity of selected phage clones binding to FGFR4 was determined by flow cytometry in 96-well plates (Becton Dickinson). Cell surface staining of Rh4-FR4 wt or Rh4-FR4ko cells was performed on ice in PBS supplemented with 1% FBS. 80 μL phages+20 μL PBS/1% milk were incubated on 1×10⁵ cells for 1 h on ice. […] Samples were analyzed after two washes by flow cytometry on a MACSQuant® cytometer (Miltenyi) and results were analyzed with FlowJo™ software (BD Biosciences, France). Phages displaying anti-mCherry nanobodies were used as negative control²⁴ and as positive control we used an anti-FGFR4 antibody (BT53, kindly provided by J. Khan lab, NCI, Bethesda, MD). For binding test of recombinant nanobodies, cells were detached with Accutase® (Stemcell Technologies) and washed with PBS. All following steps were performed on ice: 4×10⁵ cells were incubated with nanobody concentrations of 30 μg/ml for 1 h, washed once with PBS and incubated for an additional 30 min with anti His-tag FITC labeled antibody (LS-C57341, LSBioscience, diluted 1:10). The cells were washed once more with PBS and analyzed. Targeting liposomes were added at 0.5 mM final lipid concentration to cells in 96-well plates and incubated for 2 h at 37° C. and 5% CO₂. The cells were washed twice with PBS and detached with Accutase®.
Validation of the binding of recombinant nanobodies to cell-surface expressed FGFR4 was performed with Rh4-FR4 wt and Rh4-FR4ko cells by flow cytometry.

[2] = molecular target: T2, FGFR4 expressed on the surface of RMS cells (Rh4-FR4 wt, Rh30) (human, UniProt P22455 22-802); experiment: flow cytometry, recombinant nanobody at 30 µg/ml on Rh4-FR4 wt cells, anti-6xHis-FITC detection
T2 construct: Endogenous FGFR4 of the rhabdomyosarcoma cell lines; The whole entry includes the signal peptide; also called cell-surface FGFR4; Rh4-FR4 wt cells
Experimental: Control cells (C) were either not stimulated or stimulated with FGF19 in absence of the nanobodies. The cell lysates were analysed by western blot with anti phospho ERK1/2 antibody. Total Erk1/2 levels are shown as loading control.
as §1
Validation of the binding of recombinant nanobodies to cell-surface expressed FGFR4 was performed with Rh4-FR4 wt and Rh4-FR4ko cells by flow cytometry. A FITC-labeled anti-6×His-tag antibody was used to detect surface-bound nanobodies.

[3] = molecular target: T3, Recombinant FGFR4 (G&P Biosciences) (human, UniProt P22455 22-369); experiment: SPR (BIAcore T200), single cycle kinetics, FGFR4 amine-immobilised, nanobody as analyte, heterogeneous ligand model, component 2 (KD2)
T3 construct: Bought protein; the SPR method says only 'Recombinant; also called rFGFR4; extracellular FGFR4
T3 sequence: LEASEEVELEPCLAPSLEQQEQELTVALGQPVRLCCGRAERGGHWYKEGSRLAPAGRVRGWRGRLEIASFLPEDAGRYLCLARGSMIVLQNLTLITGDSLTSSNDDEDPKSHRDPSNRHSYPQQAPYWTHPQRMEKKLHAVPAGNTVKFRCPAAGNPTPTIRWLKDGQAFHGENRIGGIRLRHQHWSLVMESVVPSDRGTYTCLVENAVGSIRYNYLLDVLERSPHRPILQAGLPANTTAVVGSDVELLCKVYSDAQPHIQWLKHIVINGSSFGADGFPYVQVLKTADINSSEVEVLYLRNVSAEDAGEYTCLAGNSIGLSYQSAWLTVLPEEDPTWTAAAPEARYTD
Experimental: (§2) FIG. 3: Affinity determination of nanobodies to recombinant protein via surface plasmon resonance spectroscopy. Single cycle kinetics analysis was performed on immobilized FGFR4 through covalent amine binding on the dextran based sensor chip. The analytes A8, B1, B5, F8 and mCh were injected in 5 different concentrations followed by a dissociation phase. A final dissociation step was added after the last injection step to determine Koff rates for the KD calculations. The black curves represent the measured data and red curves show the fit analysis (heterogeneous ligand model) performed with the BIAevaluation software.
(§3) Single cycle kinetics analysis was performed with the BIAcore® T200 instrument (GE Healthcare) on CMD200M sensor chips (XanTec bioanalytics GmbH) activated with a mixture of 300 mM NHS (N-hydroxysuccinimide) and 50 mM EDC (N-ethyl-N′-(dimethylaminopropyl) carbodiimide). Recombinant FGFR1, FGFR2, FGFR3 and FGFR4 (G&P Biosciences) were immobilized on the activated biosensors (800 to 12′000 RU; 1 RU=1 pg/mm²) followed by a blocking step with 1M ethanolamine. One flow channel per chip was used as a reference to provide background corrections. The nanobodies were injected at 5 different concentrations followed by a dissociation phase. Koff-rates were determined from a final dissociation step after the last injection. The measurements with FGFR4 were performed for each nanobody on freshly immobilized protein due to strong binding and incomplete dissociation from the surface. Immobilization flow rate was 5 μl/min and binding studies were performed at 30 μl/min. Binding parameters were determined with the heterogeneous ligand model fit of the BIAevaluation software. The black curves represent the measured data and red curves show the performed fit analysis.
To determine the binding affinity of the nanobodies to FGFR4, we performed surface plasmon resonance (SPR) spectroscopy with recombinant FGFR4. As already mentioned above, FGFR1 and FGFR2 are expressed on Rh4-FR4ko cells and flow cytometry analysis indicated no binding of the nanobodies to the cells. To further confirm FGFR4-specificity, we included also affinity measurements with recombinant FGFR1, FGFR2 and FGFR3. Nanobodies A8, B1, B5, F8, and mCh were injected in five different concentrations on a FGFR coated chip.

[4] = molecular target: T3, Recombinant FGFR4 (G&P Biosciences); experiment: SPR (BIAcore T200), single cycle kinetics, FGFR4 amine-immobilised, nanobody as analyte, heterogeneous ligand model, component 2 (koff2)
Experimental: as §2, §3
To determine the binding affinity of the nanobodies to FGFR4, we performed surface plasmon resonance (SPR) spectroscopy with recombinant FGFR4. As already mentioned above, FGFR1 and FGFR2 are expressed on Rh4-FR4ko cells and flow cytometry analysis indicated no binding of the nanobodies to the cells. […]

Binder	binding result [1]	median fluorescence intensity (MFI) [2] [MFI]	Kd [3] [nM]	koff [4] [s⁻¹]
B1	no binding (tested: 30 µg/ml)	~400	0.000216	
B2	no binding (tested: 30 µg/ml)	~400	4.6	0.000992
B3	no binding (tested: 30 µg/ml)	~400	36.8	0.00245
B4	no binding (tested: 30 µg/ml)	~400	4.14	0.00557
